Results published in IntAct's records for PubMed 16616186.

B1: Rho guanine nucleotide exchange factor 9 (Rattus norvegicus (Rat)), Q9QX73 (parent)
chain: MQWIRGGSGMLITGDSIVSAEAVWDHVTMANRGVAFKAGDVIKVLDASNKDWWWGQIDDEEGWFPASFVRLWVNQEDGVEEGPSDVQNGHLDPNSDCLCLGRPLQNRDQMRANVINEIMSTERHYIKHLKDICEGYLKQCRKRRDMFSDEQLKVIFGNIEDIYRFQMGFVRDLEKQYNNDDPHLSEIGPCFLEHQDGFWIYSEYCNNHLDACMELSKLMKDSRYQHFFEACRLLQQMIDIAIDGFLLTPVQKICKYPLQLAELLKYTAQDHSDYRYVAAALAVMRNVTQQINERKRRLENIDKIAQWQASVLDWEGDDILDRSSELIYTGEMAWIYQPYGRNQQRVFFLFDHQMVLCKKDLIRRDILYYKGRIDMDKYEVIDIEDGRDDDFNVSMKNAFKLHNKETEEVHLFFAKKLEEKIRWLRAFREERKMVQEDEKIGFEISENQKRQAAMTVRKASKQKGRVGEEENQSLELKRACEVLQRLWSPGKKS
partner: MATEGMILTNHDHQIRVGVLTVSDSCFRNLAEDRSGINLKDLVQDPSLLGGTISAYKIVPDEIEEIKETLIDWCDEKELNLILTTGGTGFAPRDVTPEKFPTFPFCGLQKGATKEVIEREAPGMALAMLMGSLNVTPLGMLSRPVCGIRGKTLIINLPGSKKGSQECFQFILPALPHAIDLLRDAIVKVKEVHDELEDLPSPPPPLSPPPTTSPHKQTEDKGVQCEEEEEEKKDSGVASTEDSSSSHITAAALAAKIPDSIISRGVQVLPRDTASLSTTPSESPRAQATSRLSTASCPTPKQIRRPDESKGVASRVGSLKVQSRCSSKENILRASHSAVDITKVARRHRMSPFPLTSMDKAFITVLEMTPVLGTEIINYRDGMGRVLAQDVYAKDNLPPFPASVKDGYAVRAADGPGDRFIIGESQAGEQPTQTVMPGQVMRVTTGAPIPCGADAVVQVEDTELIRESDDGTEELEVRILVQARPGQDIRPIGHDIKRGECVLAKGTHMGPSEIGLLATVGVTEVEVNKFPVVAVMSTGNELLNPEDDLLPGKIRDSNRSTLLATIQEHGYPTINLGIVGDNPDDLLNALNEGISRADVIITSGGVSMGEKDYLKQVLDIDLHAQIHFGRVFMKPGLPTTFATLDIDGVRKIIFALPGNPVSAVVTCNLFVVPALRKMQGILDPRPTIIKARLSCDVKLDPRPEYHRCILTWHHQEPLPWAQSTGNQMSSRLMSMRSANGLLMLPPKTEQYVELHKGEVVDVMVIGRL

Variants of: B1
Settings: with geph_rat Gphn

| Variant | effect of a mutation on the interaction |
| --- | --- |
| MQWIRGGSGMLITGDSIVSAEAVWDHVTMANRGVAFKAGDVIKVLDASNKDWWWGQIDDEEGWFPASFVRLWVNQEDGVEEGPSDVQNGHLDPNSDCLCLGRPLQNAAQMRANVINAIMSTERHYIKHLKDICEGYLKQCRKRRDMFSDEQLKVIFGNIEDIYRFQMGFVRDLEKQYNNDDPHLSEIGPCFLEHQDGFWIYSEYCNNHLDACMELSKLMKDSRYQHFFEACRLLQQMIDIAIDGFLLTPVQKICKYPLQLAELLKYTAQDHSDYRYVAAALAVMRNVTQQINERKRRLENIDKIAQWQASVLDWEGDDILDRSSELIYTGEMAWIYQPYGRNQQRVFFLFDHQMVLCKKDLIRRDILYYKGRIDMDKYEVIDIEDGRDDDFNVSMKNAFKLHNKETEEVHLFFAKKLEEKIRWLRAFREERKMVQEDEKIGFEISENQKRQAAMTVRKASKQKGRVGEEENQSLELKRACEVLQRLWSPGKKS [R107A;D108A;E117A] | with no effect |
| MQWIRGGSGMLITGDSIVSAEAVWDHVTMANRGVAFKAGDVIKVLDASNKDWWWGQIDDEEGWFPASFVRLWVNQEDGVEEGPSDVQNGHLDPNSDCLCLGRPLQNRDQMAANVINEIMSTERHYIKHLKDICEGYLKQCRKRRDMFSDEQLKVIFGNIEDIYRFQMGFVRDLEKQYNNDDPHLSEIGPCFLEHQDGFWIYSEYCNNHLDACMELSKLMKDSRYQHFFEACRLLQQMIDIAIDGFLLTPVQKICKYPLQLAELLKYTAQDHSDYRYVAAALAVMRNVTQQINERKRRLENIDKIAQWQASVLDWEGDDILDRSSELIYTGEMAWIYQPYGRNQQRVFFLFDHQMVLCKKDLIRRDILYYKGRIDMDKYEVIDIEDGRDDDFNVSMKNAFKLHNKETEEVHLFFAKKLEEKIRWLRAFREERKMVQEDEKIGFEISENQKRQAAMTVRKASKQKGRVGEEENQSLELKRACEVLQRLWSPGKKS [R111A] | disrupting interaction |

Variants of: B1
Settings: with geph_rat Gphn
Remark: another data set of the same source

| Variant | effect of a mutation on the interaction |
| --- | --- |
| MQWIRGGSGMLITGDSIVSAEAVWDHVTMANRGVAFKAGDVIKVLDASNKDWWWGQIDDEEGWFPASFVRLWVNQEDGVEEGPSDVQNGHLDPNSDCLCLGRPLQNAAQMRANVINAIMSTERHYIKHLKDICEGYLKQCRKRRDMFSDEQLKVIFGNIEDIYRFQMGFVRDLEKQYNNDDPHLSEIGPCFLEHQDGFWIYSEYCNNHLDACMELSKLMKDSRYQHFFEACRLLQQMIDIAIDGFLLTPVQKICKYPLQLAELLKYTAQDHSDYRYVAAALAVMRNVTQQINERKRRLENIDKIAQWQASVLDWEGDDILDRSSELIYTGEMAWIYQPYGRNQQRVFFLFDHQMVLCKKDLIRRDILYYKGRIDMDKYEVIDIEDGRDDDFNVSMKNAFKLHNKETEEVHLFFAKKLEEKIRWLRAFREERKMVQEDEKIGFEISENQKRQAAMTVRKASKQKGRVGEEENQSLELKRACEVLQRLWSPGKKS [R107A;D108A;E117A] | disrupting interaction strength |
